These results are taken from patent EP3884948A1, “CATHEPSIN INHIBITORS AND USES THEREOF” (Ecole Polytechnique Fédérale de Lausanne (EPFL), priority 2020, dated 2021).

Assay [1] deals with T1, CTSS-His-WT and CTSS-His-Y132D (Homo sapiens, UniProt P25774).
T1 construct: made in house; host or cells: HEK293
The experiment in a line: Mass spectrometry of peptide cleavage by purified CTSS. To be noted: incubated with purified CTSS-His-WT for 30 minutes. The class given is biochemical. As to the method:
(§1) For mass spectrometry experiments, CTSS-His WT and Y132D were activated by incubation at 10 µg/mL in Assay buffer (50 mM NaOAc, 5 mM DTT, 250 mM NaCl, pH 4.5) at 37°C for 90 minutes. 2.5 µg of activated CTSS-His WT and Y132D were then co-incubated with 5 ug of peptide in Assay buffer (final volume: 300 µl) at 37°C for 15 or 30 minutes. The reaction was stopped by addition of 50 µM E64 (Selleckchem, cat #S7379) following the co-incubation. Control reactions were prepared by incubating 5 µg of peptide in 300 µl of Assay buffer at 37°C for 15 or 30 minutes. Control and digested peptides were acidified, desalted on C18 StageTips (Rappsilber et al., 2007) and dried by vacuum centrifugation. Samples were resuspended in LC-MS solvent A (2% Acetonitrile, 0.1% TFA) and equivalent sample amounts (3 to 10 ng) injections were performed. Nano-flow separations were achieved on a Dionex Ultimate 3000 RSLC nano UPLC system (Thermo Fischer Scientific) on-line connected with a Q-Exactive Mass-Spectrometer (Thermo Fischer Scientific). Samples were first trapped on a capillary C18 pre-column (Acclaim PepMap™ 100, 75 µm x 2cm) and then separated on a C18 home-made capillary column (ReproSil-Pur C18 AQ 1.9 µm; 50 cm x 75 µm ID) at 250 nl/min over a biphasic 60 min gradient ranging from 99% of solvent A (2% Acetonitrile and 0.1% Formic acid) to 90% of solvent B (90% Acetonitrile and 0.1% Formic acid). The mass spectrometer was operated in Data Dependent acquisition mode using a scan range of 200 to 1500 m/z. MS resolution was set to 70K and MS2 resolution to 17,5K. An isolation window of 2 m/z was used when selecting ions to fragment by HCD and the Normalized Collision Energy (NCE) was set to 27. Data were inspected and dedicated traces extracted with Xcalibur Qual Browser software (Thermo Fischer Scientific). The peptides used were the following: CD74 ([…]) (SEQ ID NO: 16), HSPA1/8 ([…]) (SEQ ID NO: 17), OVA ([…]) (SEQ ID NO: 18), HA ([…]) (SEQ ID NO: 19).

The test system of assay [2] is CTSS-His-WT and CTSS-His-Y132D. Described as above. The class given is biochemical, human. Particulars: after 15 minutes of incubation with purified CTSS-His-WT and CTSS-His-Y132D. The protocol: as §1

For NVKNLYEKVKSQLKNNAKEI [SEQ ID NO: 19], the “cleavage by CTSS” value in assay [1] is listed as “can cleave”.
Still for that read-out and setting: the result for IKVYLPRMKMEEKYNLTSVL [SEQ ID NO: 18] reads “can cleave”.
For EEIERMVQEAEKYKAEDEVQ [SEQ ID NO: 17], the peptides cleaved in assay [2] is recorded as 35-40%.
For QLENLRMKLPKPPKPVSKMR [SEQ ID NO: 16], the peptides cleaved entry in assay [2] is “completely cleaved”.
